Reference: patent publication US20220276234A1, “POINT-OF-CARE IMMUNOASSAY FOR QUANTITATIVE SMALL ANALYTE DETECTION” (priority 2011, published 2022)

Columns and labels:
[1] = compared with parent compound aripiprazole and dehydro aripiprazole; cited from earlier work
[2] = cited from earlier work
[3] = in vivo; cited from earlier work
B7-HTHC immunocomplex = test: Sandwich type ELISA assay with selected derived B7-HTHC aptamers (5' biotin, HRP-streptavidin, TMB); assay type: binding
Procedure: The 11 aptamers were synthesized with a 5′ biotin such that they could be detected in ELISA-type assays. The aptamers were tested for their ability to bind to the target in two ways. In both assays, the antibody was coated onto the walls of a microtiter plate. In the first assay, HTHC was added to the antibody. After washing away unbound HTHC, the aptamers were added. In the second assay, the aptamers were added to the wells with HTHC simultaneously. In both assays, after washing away unbound aptamer, the plates were incubated with HRP-streptavidin, and then assayed for the amount of aptamer that remained bound to the immunocomplex using a colorimetric TMB assay.

B7-HTHC immune complex [4] = test: Capillary electrophoresis test of candidate aptamers; assay type: binding; details: electropherogram peak shift, FIGS. 10A and 10B
Procedure: Following completion of aptamer selection, aptamers from the first, fifth, and tenth rounds of Structure Switching SELEX were sequenced using standard Next-Generation Sequencing (NGS) methods (AKESOgen). Of the sequences obtained by NGS, ten sequences per aptamer were tested using Capillary Electrophoresis (CE) and in a proprietary assay utilizing real-time PCR.
The candidate aptamers were initially tested using capillary electrophoresis. Of the 10 B7-HTHC aptamers, 3 were identified as candidate binders. […] This is likely due to the difference between the composition of the buffer required for capillary electrophoresis and the composition of the buffer used during the SELEX selection process.

B7 antibody alone = test: Proprietary qPCR-based aptamer binding assay, immune complexes anchored to solid support; details: qPCR amplification, FIG. 11
Procedure: (§1) Binding selectivity was tested in varying salt conditions to determine optimal conditions for selection. Using a proprietary binding assay, the aptamers were allowed to incubate with immune complexes that were anchored to a solid support. After the incubation period, the immune complexes were washed, and the amount of aptamer binding was assayed via qPCR. Increased aptamer binding to the immune complex allowed faster detection of DNA amplification.
(§2) Of the aptamers tested, only one aptamer satisfied the following requirements: (1) binding to the correct immune complex, (2) no binding to the antibody alone, and (3) no binding to the antibody and the incorrect metabolite. FIG. 11 is a qPCR amplification curve showing the binding of Aptamer B7C4 with the immune complex B7-HTHC, the immune complex B7-THC, the B7 antibody alone, and a negative control. Theoretically, every additional cycle indicates 2 times fewer bound aptamer molecules.

B7-HTHC immune complex [5] = test: as above; details: qPCR amplification, FIG. 11
Procedure: as §1, §2

B7-THC immune complex = test: as above; details: qPCR amplification, FIG. 11
Procedure: as §1, §2

[6] = separate incubation: aptamers added after HTHC and washing, FIG. 16A
[7] = simultaneous incubation: aptamers added with HTHC, FIG. 16B

O=C(O)CCCOc1ccc2c(c1)NC(=O)CC2 [OPC-3373]
Water solubility [1]: much more water soluble

CN1CCCC1c1cccnc1 (stereo not shown) [nicotine]
Time to reach the brain after inhalation ([2]; crosses the blood-brain barrier): 10 to 20 s | Elimination half-life in the body ([2]; in vivo): approximately two

CCCCCc1cc(O)c2c(c1)OC(C)(C)[C@@H]1CCC(C)=C[C@@H]21 [THC, Delta-9-tetrahydrocannabinol]
Excreted in the feces [3]: More than 55% | Excreted in the urine [3]: approximately 20%

B1: Aptamer 493: selected derived B7-HTHC DNA aptamer (nucleic acid)
DNA: CCTGTCAGTTGCTTACCGGGCACGAGTACGAGACTGCAGGATTCTTCTACACTGCACCCCATGTAGTGTCCTTGCTC
modifications: DNA, backbone and methylation of C not given here
Normalized absorption signal, aptamer binding to immunocomplex (B7-HTHC immunocomplex; [6]): the opposite behavior compared to that of aptamer 444 | Normalized absorption signal, aptamer binding to immunocomplex (B7-HTHC immunocomplex; [7]): the opposite behavior compared to that of aptamer 444

B2: B7C1: candidate DNA aptamer for antibody B7 and HTHC (nucleic acid)
DNA: CCTGTCAGTTGCTTACCGGCCCAGGTGTAGTAACTGCAGGGATTCTTAACGTAGCTACCGGGTGTAGTGTCCTTGCTCGT
modifications: DNA, backbone not given here; further chemistry not fully specified
notes: candidate DNA aptamer for antibody B7 and HTHC
Binding to immune complex by capillary electrophoresis (B7-HTHC immune complex [4]): peak shifts associated with the introduction of the immune complex

B3: B7C4: parent DNA aptamer selective for the B7-HTHC immune complex (nucleic acid)
DNA: CCTGTCAGTTGCTTACCGGGCACGAGTACGAGACTGCAGGATTCTTCTACACTGCCCCCCATGTAGTGTCCTTGCTCGT
modifications: DNA, backbone not given here; further chemistry not fully specified
Aptamer binding to B7 antibody alone (B7 antibody alone): minimal binding | Aptamer binding to B7 antibody alone (B7 antibody alone; listed as B7C4-HTHC): residual binding affinity | Aptamer binding to B7-HTHC immune complex (B7-HTHC immune complex [5]): significant binding | Aptamer binding to B7-HTHC immune complex (B7-HTHC immune complex [5]; listed as B7C4-HTHC): high affinity | Aptamer binding to B7-THC immune complex (B7-THC immune complex): minimal binding

B4: Aptamer 815: selected derived B7-HTHC DNA aptamer, family 2 (nucleic acid)
DNA: CCTGTCAGTTGCTTACCGGGCACGAGTACTAGACTGCAGGATTCTTCTACACTGCCCCCCATGTAGTGTCCTTGCTCGT
modifications: DNA, backbone and methylation of C not given here
Normalized absorption signal, aptamer binding to immunocomplex (B7-HTHC immunocomplex; [6]): high binding | Normalized absorption signal, aptamer binding to immunocomplex (B7-HTHC immunocomplex; [7]): lost this ability

B5: Aptamer 444: selected derived B7-HTHC DNA aptamer (nucleic acid)
DNA: CCTGTCAGTTGCTTACCGGGCACGAGTACGAGACTGCAGGATTCTTCTACACTGCGCCCCATGTAGTGTCCTTGCTCGT
modifications: DNA, backbone and methylation of C not given here
Normalized absorption signal, aptamer binding to immunocomplex (B7-HTHC immunocomplex; [6]): high sensitivity | Normalized absorption signal, aptamer binding to immunocomplex (B7-HTHC immunocomplex; [7]): reduced sensitivity

B6: Aptamer 368.2: selected derived B7-HTHC DNA aptamer (nucleic acid)
DNA: CCTGTCAGTTGCTTACCGGGCACGAGTACGAGACTGCAGGATTCTTCTACACTGCTCCCCATGTAGTGTCCTTGCTCGT
modifications: DNA, backbone and methylation of C not given here
Normalized absorption signal, aptamer binding to immunocomplex (B7-HTHC immunocomplex; [6]): significant binding | Normalized absorption signal, aptamer binding to immunocomplex (B7-HTHC immunocomplex; [7]): significant binding
